We go through 1 protein from article PMC3645732, “A Differential Redox Regulation of the Pathways Metabolizing Glyceraldehyde-3-Phosphate Tunes the Production of Reducing Power in the Cytosol of Plant Cells” (International Journal of Molecular Sciences, 2013).

Substrate in the series: NC(=O)c1ccc[n+]([C@@H]2O[C@H](COP(=O)([O-])OP(=O)(O)OC[C@H]3O[C@@H](n4cnc5c(N)ncnc54)[C@H](O)[C@@H]3O)[C@@H](O)[C@H]2O)c1
Nature of the series: purified protein. It counts as biochemical, Triticum aestivum.

B1: Ga3PDHase (phosphorylating NAD+-dependent glyceraldehyde-3-phosphate dehydrogenase, EC 1.2.1.12) (Triticum aestivum) (protein)
chain: MGKIKIGINGFGRIGRLVARVALQSPDVELVAVNDPFITTDYMTYMFKYDTVHGQWKHHEVKVKDSKTLLFGEKEVAVFGCRNPEEIPWAAAGAEYVVESTGVFTDKDKAAAHIKGGAKKVIISAPSKDAPMFVCGVNEKEYKSDIDIVSNASCTTNCLAPLAKVINDRFGIVEGLMTTVHAMTATQKTVDGPSSKDWRGGRAASFNIIPSSTGAAKAVGKVLPELNGKLTGMAFRVPTVDVSVVDLTVRLAKPATYDQIKAAIKEESEGNLKGILGYVDEDLVSTDFQGDNRSSIFDAKAGIALNDHFVKLVSWYDNEWGYSTRVVDLIRHMHSTK
notes: recombinant wheat gapC (NCBI EF592180), homotetramer, E. coli
As to B1, the K0.5 turned out to be 136 µM.
